Results: US8058240B2, “Biological active ligands of melanocortin receptors” (University of Florida Research Foundation, Inc., priority 2006, dated 2011)
Ends that are not written are not given here.

Key:
[1] = biological target: T1, wild type (WT) hMC4R (Homo sapiens, UniProt P32245); experiment: cAMP based functional bioassay, antagonist Schild analysis against agonist MTII; assay type: cell-based; conditions: ± SEM
T1 construct: expressed in transfected cells

[2] = biological target: T2, S58C hMC4R (Homo sapiens, UniProt P32245, S58C); experiment: as above; assay type: cell-based; conditions: ± SEM
T2 construct: expressed in transfected cells

[3] = biological target: T3, N97D hMC4R (Homo sapiens, UniProt P32245, N97D); experiment: as above; assay type: cell-based
T3 construct: expressed in transfected cells

[4] = biological target: T4, I102S hMC4R (Homo sapiens, UniProt P32245, I102S); experiment: as above; assay type: cell-based; conditions: ± SEM
T4 construct: expressed in transfected cells

[5] = biological target: T5, L106P hMC4R (Homo sapiens, UniProt P32245, L106P); experiment: as above; assay type: cell-based; conditions: ± SEM
T5 construct: expressed in transfected cells

[6] = biological target: T6, S127L hMC4R (Homo sapiens, UniProt P32245, S127L); experiment: as above; assay type: cell-based
T6 construct: expressed in transfected cells

[7] = biological target: T7, I137T hMC4R (Homo sapiens, UniProt P32245, I137T); experiment: as above; assay type: cell-based; conditions: ± SEM
T7 construct: expressed in transfected cells

[8] = biological target: T8, T150I hMC4R (Homo sapiens, UniProt P32245, T150I); experiment: as above; assay type: cell-based; conditions: ± SEM
T8 construct: expressed in transfected cells

[9] = biological target: T9, R165Q hMC4R (Homo sapiens, UniProt P32245, R165Q); experiment: as above; assay type: cell-based; conditions: ± SEM
T9 construct: expressed in transfected cells

[10] = biological target: T10, R165W hMC4R (Homo sapiens, UniProt P32245, R165W); experiment: as above; assay type: cell-based; conditions: ± SEM
T10 construct: expressed in transfected cells

[11] = biological target: T11, G252S hMC4R (Homo sapiens, UniProt P32245, G252S); experiment: as above; assay type: cell-based; conditions: ± SEM
T11 construct: expressed in transfected cells

[12] = biological target: T12, V253I hMC4R (Homo sapiens, UniProt P32245, V253I); experiment: as above; assay type: cell-based; conditions: ± SEM
T12 construct: expressed in transfected cells

[13] = biological target: T13, C271Y hMC4R (Homo sapiens, UniProt P32245, C271Y); experiment: as above; assay type: cell-based; conditions: ± SEM
T13 construct: expressed in transfected cells

[14] = biological target: T14, I301T hMC4R (Homo sapiens, UniProt P32245, I301T); experiment: as above; assay type: cell-based; conditions: ± SEM
T14 construct: expressed in transfected cells

[15] = system: polymorphic hMC4Rs; experiment: cAMP based functional bioassay, summary statements for the polymorphic hMC4Rs as a group; assay type: cell-based, human
[16] = biological target: T13, C271Y hMC4R; experiment: cAMP based functional bioassay, agonist stimulation, stably transfected HEK-293 cells; assay type: cell-based
[17] = biological target: T2, S58C hMC4R; experiment: as above; assay type: cell-based; conditions: S58C hMC4R as printed; at up to 10^−5 M concentrations
[18] = biological target: T5, L106P hMC4R; experiment: as above; assay type: cell-based; conditions: HEK293, L106P hMC4R, read-out: stimulation (maximal stimulation less than the forskolin control level)
[19] = Schild analysis, agonist MTII, ± SEM

hAGRP(87-132): endogenous C-terminal antagonist agouti-related protein ligand, purchased from Peptides International
Antagonist pA2 [1]: 8.28 ± 0.11 | Antagonist pA2 [2]: 8.02 ± 0.13 | antagonist potency relative to the wild type control [3]: statistically significant decreased | Antagonist pA2 [3, 19]: 7.44 ± 0.11 | Antagonist pA2 [4]: 8.17 ± 0.10 | Antagonist pA2 [5]: 8.27 ± 0.12 | antagonist potency relative to the wild type control [6]: statistically significant decreased | Antagonist pA2 [6, 19]: 7.06 ± 0.16 | Antagonist pA2 [7]: 8.33 ± 0.12 | Antagonist pA2 [8]: 8.34 ± 0.06 | Antagonist pA2 [9]: 8.57 ± 0.06 | Antagonist pA2 [10]: 8.52 ± 0.17 | Antagonist pA2 [11]: 8.53 ± 0.02 | Antagonist pA2 [12]: 8.41 ± 0.17 | Antagonist pA2 [13]: 8.45 ± 0.03 | Antagonist pA2 [14]: 8.60 ± 0.07

C[C@@H]1NC(=O)[C@H](CC(N)=O)NC(=O)[C@H](Cc2c[nH]c3ccccc23)NC(=O)[C@H](CCCNC(=N)N)NC(=O)[C@@H](Cc2ccccc2)NC(=O)[C@H](Cc2c[nH]cn2)NC(=O)[C@@H](NC(=O)[C@@H](N)Cc2ccc(O)cc2)CSSC[C@@H](C(=O)N[C@@H](Cc2ccc(O)cc2)C(N)=O)NC(=O)[C@H](Cc2ccccc2)NC1=O [AMW3-130, Tyr-c[Cys-His-DPhe-Arg-Trp-Asn-Ala-Phe-Cys]-Tyr-NH2]
agonist EC50 potency ([15]; at all these polymorphic hMC4Rs): sub nM to mM | agonist function at these hMC4Rs ([15]; eleven human MC4R polymorphisms): rescue

CSCC[C@H](NC(=O)[C@H](CCCNC(=N)N)NC(=O)[C@H](Cc1ccc(O)cc1)NC(=O)[C@@H]1CCCN1C(=O)CNC(=O)[C@H](CCC(=O)O)NC(=O)[C@H](CC(=O)O)NC(=O)[C@H](CCCCN)NC(=O)[C@H](CCCCN)NC(=O)[C@H](CCC(=O)O)NC(=O)[C@H](C)N)C(=O)N[C@@H](CCC(=O)O)C(=O)N[C@@H](Cc1c[nH]cn1)C(=O)N[C@@H](Cc1ccccc1)C(=O)N[C@@H](CCCNC(=N)N)C(=O)N[C@@H](Cc1c[nH]c2ccccc12)C(=O)NCC(=O)N[C@@H](CO)C(=O)N1CCC[C@H]1C(=O)N1CCC[C@H]1C(=O)N[C@@H](CCCCN)C(=O)N[C@@H](CC(=O)O)C(=O)O [β-MSH]
response stimulated ([16]; C271Y hMC4R): maximal response

SYSMEHFRWGKPVGKKRRPVKYPN [ACTH(1-24)]
ability to stimulate this receptor [17]: inability | Emax at 1 µM [18]: 40 to 50% | Emax at 1 µM ([16]; HEK293, C271Y hMC4R, at 1 μM, read-out: stimulation (maximal stimulation less than the forskolin control level)): 42 to 58%
